Data reported in patent US20150219635A1.

Target: IgE-Fc(E289C)_BirA, terbium chelate labelled, biotinylated, mixed with Alexa488 labelled streptavidin (human), P01854
Test: cell-based or functional assay

IgE-Fc(E289C)_BirA, terbium chelate labelled, biotinylated, mixed with Alexa488 labelled streptavidin (human), P01854, sequence (P01854 other isoform, or with tags, fused parts or gaps, stated change not applied): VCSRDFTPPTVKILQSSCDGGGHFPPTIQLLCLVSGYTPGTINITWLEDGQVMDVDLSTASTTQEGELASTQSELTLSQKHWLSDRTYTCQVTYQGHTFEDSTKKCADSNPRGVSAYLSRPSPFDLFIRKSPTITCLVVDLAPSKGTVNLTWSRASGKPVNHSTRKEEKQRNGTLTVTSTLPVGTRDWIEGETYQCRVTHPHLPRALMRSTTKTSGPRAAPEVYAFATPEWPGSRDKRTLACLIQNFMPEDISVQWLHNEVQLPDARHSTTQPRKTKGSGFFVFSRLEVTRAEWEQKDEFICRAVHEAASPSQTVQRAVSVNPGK

normalised FRET, mean, at [Fab] 0.152 nM: 1
normalised FRET, mean, at [Fab] 0.45 nM: 0.2
normalised FRET, mean, at [Fab] 1.37 nM: 1.55
normalised FRET, mean, at [Fab] 4.4 nM: 0.1
normalised FRET, mean, at [Fab] 12.3 nM: 2
normalised FRET, mean, at [Fab] 37.03 nM: 9.68
normalised FRET, mean, at [Fab] 111 nM: 28.8
normalised FRET, mean, at [Fab] 333 nM: 39.3
normalised FRET, mean, at [Fab] 1000 nM: 43.4
normalised FRET, mean, at [Fab] 3000 nM: 41
B1: Fab7 (anti-human IgE Fab, human IgG1 Fab format) (Fab)
heavy: QVQLQQSGPGLVKPSQTLSLTCGISGDSVSSNSAAWNWLRQSPSRGLEWLGRTYYRSKWYNDYAVSMKSRITINPDTSRNQFSLQLNSVTPEDTAVYYCARDGEISYDYYYYGMDVWGRGTLVTVSSASTKGPSVFPLAPSSKSTSGGTAALGCLVKDYFPEPVTVSWNSGALTSGVHTFPAVLQSSGLYSLSSVVTVPSSSLGTQTYICNVNHKPSNTKVDKKVEPKSC
light: not shown
modifications: here or on the partner: thiol reactive terbium chelate on the Cys of E289C; biotin on the C-terminal BirA recognition motif (carrying Alexa488 labelled streptavidin)
